From patent publication US20200131266A1 (STCUBE, published 2020)

T1: human BTN1A1 on cells (human, UniProt Q13410 27-526)
T1 construct: also called HEK293T cells overexpressing BTN1A1
T1 sequence: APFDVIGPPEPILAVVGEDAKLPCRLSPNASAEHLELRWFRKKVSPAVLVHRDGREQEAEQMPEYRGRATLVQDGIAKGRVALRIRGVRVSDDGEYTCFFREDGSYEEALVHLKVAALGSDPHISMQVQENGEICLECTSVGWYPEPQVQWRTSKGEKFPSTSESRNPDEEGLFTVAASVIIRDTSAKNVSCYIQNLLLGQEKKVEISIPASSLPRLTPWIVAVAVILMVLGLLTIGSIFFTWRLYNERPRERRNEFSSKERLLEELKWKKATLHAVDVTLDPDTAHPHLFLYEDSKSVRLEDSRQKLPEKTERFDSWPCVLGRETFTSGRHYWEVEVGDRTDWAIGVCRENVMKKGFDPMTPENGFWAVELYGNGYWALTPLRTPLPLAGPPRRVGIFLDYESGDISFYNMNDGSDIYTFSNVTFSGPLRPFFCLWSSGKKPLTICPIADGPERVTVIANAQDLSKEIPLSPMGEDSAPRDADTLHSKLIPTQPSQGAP


Target: T1, human BTN1A1 on cells
Assay: FACS, HEK293T cells overexpressing BTN1A1
Experimental: To identify anti-BTN1A1-Fc MAbs that were specific for and which preferentially bound human BTN1A1-Fc antigen, different types of assays were performed. In a screening assay to detect preferential binding of MAbs to BTN1A1, antibody binding was determined based on the measurement of fluorescence intensity through FACS analysis (using cell membrane bound proteins). By way of example, the assay was performed using the HEK293T human embryonic kidney cell line. Illustratively, HEK293T cells overexpressing BTN1A1 were incubated with anti-BTN1A1 antibodies existing in hybridoma culture supernatant. After washing, secondary antibodies conjugated with FITC were added as detection agent. Fluorescence intensity (measured fluorescence intensity, MFI) was measured via FACS I flow cytometry analysis to assess the relative binding of the anti-BTN1A1 antibodies to membrane bound BTN1A1 WT on cells. […] Based on the binding analysis, sixty seven candidate MAb-producing hybridomas were selected, grown in ADCF medium, and their supernatant containing monoclonal antibody was concentrated and purified.

Binder	FACS (MFI)
STC2778 (antibody, V domains shown, mouse hybridoma monoclonal antibody raised against human BTN1A1-Fc, kappa light chain) VH: QIQLVQSGPELKKPGETVKISCKASGYSFTNYGMNWVKQAPGKGLKWMGWINIYTGETTYGDDFKGRFAFSLETSASTAYLQINNLRSEDTATYFCVRGGTMIMYWGQGTTLTVSS VL: DIVLTQSPATLSVTPGDSVSLSCRASQSISNNLHWHQQKSHESPRLLIKYASQSMSGIPSRFSGSGSGTDFTLSINSVETEDFGMYFCQQSDSWPLTFGAGTKLELK	2340
STC2739 (antibody, V domains shown, mouse hybridoma monoclonal antibody raised against human BTN1A1-Fc, kappa light chain) VH: QVQLKQSGPGLVQPSQSLSITCTVSGFSLTTHGVNWVRQSPGKGLEWLGVIWSGGSTDYNAAFISRLSISKDNSKSQVFFKMNSLQANDTAIYYCARPYYYGAMDYWGQGTSVTVSS VL: QIVLTQSPSIMSASPGEKVTITCSASSSVSYIHWFQQKPGTSPKLWIYSTSNLASGVPARFSGSGSGTSYSLTISRMEAEDAATYYCQQRSIYPLTFGAGTKLELK	841
STC2602 (antibody, V domains shown, mouse hybridoma monoclonal antibody, kappa light chain) VH: EVQLQQSGPELVKPGASVKISCKASGFSFIGYYIDWVKQSPGKSLEWIGYIYPSNGETSYHQKCKGKATLTVDKSSSTVNMQLNSLTSEDSAVYYCARYGNYDWFFDVWGAGTTVTVSS VL: QIVLTQSPAIMSASPGEKVTITCSASSSVSYMHWFQQKPGTSPKFWIYSTSNLASGVPIRFSGSGSGTSYSLTISRMEAEDAATYYCQQRSSYPYTFGGGTKLEIK	69.5
